± gives the uncertainty stated by the source.
Assay: self-splicing fitness, log relative to wild type (ln ratio); higher = more splicing; Tetrahymena group I intron in knt gene, E. coli kanamycin selection, DiMSum; sequences stand for … in CUCUCU…GGAGGGAAAAGUUAUCAGGCAUGCACCUGGUAGCUAGUCUUUAAACCAAUAGAUUGCAUCGGUUUAAAAGGCAAGACCGUCAAAUUGCGGGAAAGGGGUCAACAGCCGUUCAGUACCAAGUCUCAGGGGAAACUUUGAGAUGGCCUUGCAAAGGGUAUGGUAAUAAGCUGACGGACAUGGUCCUAACCACGCAGCCAAGUCCUAAGUCAACAGAUCUUCUGUUGAUAUGGAUGCAGUUCACAGACUAAAUGUCGGUCGGGGAAGAUGUAUUCUUCUCAUAAGAUAUAGUCGGACCUCUCCUUAAUGGGAGCUAGCGGAUGAAGUGAUGCAACACUGGAGCCGCUGGGAACUAAUUUGUAUGCGAAAGUAUAUUGAUUAGUUUUGGAGUACUCGUGGUCG
Method in brief: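 The eight P1ex-region nucleotides of an intron in the knt kanamycin-resistance gene on pET-22b(+) were all randomised and the library put into E. coli BL21(DE3). Six replicate transformations were grown overnight at 37°C or 30°C on LB agar with or without 25 μg/mL kanamycin, together with 100 μg/mL carbenicillin, 50 μM IPTG and 0.2% rhamnose. Colonies were pooled and amplicon-sequenced on an Illumina HiSeq 2500. Fitness from DiMSum is the error-weighted combination of wild-type-normalised replicate fold changes, kanamycin over none.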

Sequence | self-splicing fitness (ln) (30 °C) | self-splicing fitness (ln) (37 °C)
ACAGAGCAAUAUUACGAACA | -2.01 ± 0.26 | -2.67 ± 0.41
GGUAAGCAAUAUUACGGGAC | -2.69 ± 0.29 | -1.27 ± 0.2
AGAUAGCAAUAUUACGACAA | -0.741 ± 0.072 | -0.217 ± 0.077
ACGGAGCAAUAUUACGGUAC | -4.95 ± 0.36 | -2.3 ± 0.22
AGAGAGCAAUAUUACGCCGC | -3.9 ± 0.3 | -1.49 ± 0.25
CGCUAGCAAUAUUACGUCUU |  | -0.855 ± 0.16
CGAGAGCAAUAUUACGCAAA | -2.67 ± 0.27 | 
UCGAAGCAAUAUUACGGCGU | -0.22 ± 0.087 | -0.249 ± 0.12
AUGUAGCAAUAUUACGUGGC | -4.11 ± 0.46 | -2.84 ± 0.25
CGGUAGCAAUAUUACGCCCU | 0.24 ± 0.19 | 0.785 ± 0.29
UCGCAGCAAUAUUACGCAAC |  | -2.8 ± 0.17
UGUAAGCAAUAUUACGUGGC | -4.03 ± 0.4 | -2.26 ± 0.37
UACGAGCAAUAUUACGGAGA | -3.09 ± 0.33 | -2.84 ± 0.45
CGUGAGCAAUAUUACGAAGU | -3.6 ± 0.21 | -2.41 ± 0.19
UACCAGCAAUAUUACGUCAA | -1.19 ± 0.079 | -0.33 ± 0.086
CCUCAGCAAUAUUACGUCAC | -3.97 ± 0.27 | -2.36 ± 0.26
CGCAAGCAAUAUUACGGGGC | -3.65 ± 0.17 | -2.6 ± 0.15
UUACAGCAAUAUUACGGGUA | -1.94 ± 0.097 | -0.854 ± 0.087
AUAGAGCAAUAUUACGAAAG | -3.24 ± 0.2 | -2.05 ± 0.22
GCGUAGCAAUAUUACGCAAG | -3.32 ± 0.41 | 
GCUGAGCAAUAUUACGACAG | -1.05 ± 0.31 | 
AUUUAGCAAUAUUACGCCCG | -1.48 ± 0.24 | -1.15 ± 0.28
UCAAAGCAAUAUUACGACCC | -3.88 ± 0.35 | -2.34 ± 0.39
UCAAAGCAAUAUUACGUCCU | -3.34 ± 0.29 | -1.98 ± 0.24
UUUUAGCAAUAUUACGUUCG | -0.683 ± 0.11 | -1.34 ± 0.12
CCAGAGCAAUAUUACGAUAA | -3.17 ± 0.29 | -2.04 ± 0.2

Sequence | self-splicing fitness (ln) (30 °C) | self-splicing fitness (ln) (37 °C)
UGGAAGCAAUAUUACGGGUU | -2.85 ± 0.18 | -2.38 ± 0.41
GUUUAGCAAUAUUACGAGGG | -3.76 ± 0.36 | -2.73 ± 0.34
UCUUAGCAAUAUUACGACGA | 0.0588 ± 0.29 | -1.68 ± 0.22
UACUAGCAAUAUUACGACUC | -1.8 ± 0.42 | -0.907 ± 0.34
CAAGAGCAAUAUUACGAUGU | -3.88 ± 0.23 | -2.73 ± 0.25
AAAAAGCAAUAUUACGUCUA | -0.394 ± 0.053 | 0.068 ± 0.07
ACAUAGCAAUAUUACGCCCA | -0.769 ± 0.13 | -0.85 ± 0.15
GGUAAGCAAUAUUACGUGAU | -1.64 ± 0.099 | -1.68 ± 0.12
UUAUAGCAAUAUUACGAUGU | -2.57 ± 0.2 | -1.57 ± 0.23
GGCAAGCAAUAUUACGCUUU | -1.58 ± 0.12 | -0.416 ± 0.12
CAAAAGCAAUAUUACGCCAC | -2.1 ± 0.24 | -1.89 ± 0.34
CUUCAGCAAUAUUACGGUAA | -1.67 ± 0.23 | -1.88 ± 0.17
CCGAAGCAAUAUUACGAUAG | -0.89 ± 0.061 | -0.284 ± 0.08
AUAAAGCAAUAUUACGUACG | -0.889 ± 0.095 | -0.0766 ± 0.13
AGCAAGCAAUAUUACGCAAA | -3.11 ± 0.27 | -2.23 ± 0.24
CUUCAGCAAUAUUACGAGGC | -4.72 ± 0.41 | -1.59 ± 0.4
UGUGAGCAAUAUUACGGUGA | -2.19 ± 0.31 | -1.67 ± 0.2
GUCAAGCAAUAUUACGUUAU | -2.02 ± 0.088 | -1.15 ± 0.09
GCGAAGCAAUAUUACGCAGC | -3.31 ± 0.25 | -2.06 ± 0.34
UUAUAGCAAUAUUACGAUCA | -0.672 ± 0.15 | -0.403 ± 0.17
GCCUAGCAAUAUUACGUCAG | -2.36 ± 0.26 | -0.81 ± 0.34
CACCAGCAAUAUUACGGACC | -2.62 ± 0.21 | -1.72 ± 0.21
CUACAGCAAUAUUACGGUCA | -3.37 ± 0.28 | -1.96 ± 0.24
AUCAAGCAAUAUUACGUCAA | -3.14 ± 0.2 | -0.928 ± 0.15
UGGAAGCAAUAUUACGUCGG | -0.128 ± 0.11 | -0.162 ± 0.11
UCGUAGCAAUAUUACGCGGC |  | -2.15 ± 0.46

Sequence | self-splicing fitness (ln) (30 °C) | self-splicing fitness (ln) (37 °C)
GGUUAGCAAUAUUACGCUCC | -1.71 ± 0.39 | 0.76 ± 0.48
GGCUAGCAAUAUUACGCCGU | -1.49 ± 0.11 | -0.833 ± 0.17
UCUUAGCAAUAUUACGAACA | -0.762 ± 0.13 | -1.04 ± 0.14
CCGCAGCAAUAUUACGGUUC | -3.51 ± 0.28 | -3.67 ± 0.37
UCUCAGCAAUAUUACGGAAU | -3.04 ± 0.26 | -1.85 ± 0.21
CUGAAGCAAUAUUACGGCGU | -3.6 ± 0.41 | -2.98 ± 0.47
GAGGAGCAAUAUUACGUGCG | -2.06 ± 0.15 | -1.39 ± 0.17
CGACAGCAAUAUUACGAGUG | -1.06 ± 0.046 | -0.592 ± 0.063
GAAUAGCAAUAUUACGACAC | -0.0325 ± 0.3 | -0.0524 ± 0.23
CGACAGCAAUAUUACGGUGA | -2.34 ± 0.14 | -1.55 ± 0.14
AGCCAGCAAUAUUACGCCUC |  | -0.728 ± 0.44
GCUUAGCAAUAUUACGCACG | -2.19 ± 0.092 | -0.388 ± 0.1
UAUGAGCAAUAUUACGCGAG | -2.87 ± 0.17 | -0.834 ± 0.08
GCCCAGCAAUAUUACGUAAU | -0.747 ± 0.06 | -0.32 ± 0.067
AUCGAGCAAUAUUACGGUAA | -2.41 ± 0.29 | -3.15 ± 0.35
GUUAAGCAAUAUUACGAACA | -2.16 ± 0.29 | -1.32 ± 0.21
UGGCAGCAAUAUUACGUUGC | -3.77 ± 0.19 | -2.37 ± 0.13
CCAGAGCAAUAUUACGCUUC | -3.48 ± 0.42 | 
GGUCAGCAAUAUUACGUUUC | 0.000828 ± 0.13 | -0.437 ± 0.14
AACUAGCAAUAUUACGGGGG | -2.73 ± 0.2 | -1.53 ± 0.22
GUCUAGCAAUAUUACGUUAU | -0.954 ± 0.061 | -0.704 ± 0.055
ACCGAGCAAUAUUACGCCAU | -4.46 ± 0.36 | -2.05 ± 0.22
AUUGAGCAAUAUUACGUAGC | -3.31 ± 0.4 | -2.32 ± 0.31
AAUUAGCAAUAUUACGGACC |  | -1.07 ± 0.48
ACUAAGCAAUAUUACGUCUA | -1.45 ± 0.13 | -0.981 ± 0.12
AUUCAGCAAUAUUACGUAUC | -3.62 ± 0.26 | -1.04 ± 0.16

From the supplement of paper PMC7877785
